Here are results for four sequences from the supplement of paper PMC5998384.

For data set [1], the system named is HeLa Kyoto. The data set is described as follows: solubility change mitosis vs G1/S (difference of NP-40 vs SDS log2 ratios) (log2 ratio difference); higher = more soluble in mitosis.
Data set [2] has as its system HeLa Kyoto. Briefly: melting temperature (median over replicates), in situ; higher = more thermally stable.
Data set [3] deals with HeLa Kyoto. The data set is described as follows: thermal stability score vs G1/S (z-score of summed log2 fold changes over temperatures); higher = more thermally stable than in G1/S.
Data set [4] deals with HeLa Kyoto. The data set is described as follows: solubility in G1/S (NP-40 vs SDS abundance) (log2 ratio); higher = more soluble. Conditions: cell cycle stage: G1/S.
Setting [5] is: cell cycle stage: early G1 (4.5 h after nocodazole release).
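Wherever melting temperature (median over replicates), in situ is given: HeLa Kyoto cells synchronized by double thymidine or nocodazole block, proteins quantified by TMT10plex mass spectrometry, three independent biological replicates.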
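Wherever solubility change mitosis vs G1/S (difference of NP-40 vs SDS log2 ratios) is given: synchronized HeLa Kyoto cells (double thymidine block for G1/S, nocodazole release for mitosis), protein amounts in NP-40 versus SDS lysates quantified by mass spectrometry, three biological replicates.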
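Wherever solubility in G1/S (NP-40 vs SDS abundance) is given: HeLa Kyoto cells arrested at G1/S by double thymidine block, proteins quantified by TMT10plex mass spectrometry in mild NP-40 versus SDS extracts, three biological replicates.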
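Wherever thermal stability score vs G1/S (z-score of summed log2 fold changes over temperatures) is given: synchronized HeLa Kyoto cells, proteins quantified by TMT10plex mass spectrometry, three biological replicates, mitosis taken 0.5 h after nocodazole release, G1/S directly after double thymidine block.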

Regarding “MANQVNGNAVQLKEEEEPMDTSSVTHTEHYKTLIEAGLPQKVAERLDEIFQTGLVAYVDLDERAIDALREFNEEGALSVLQQFKESDLSHVQNKSAFLCGVMKTYRQREKQGSKVQESTKGPDEAKIKALLERTGYTLDVTTGQRKYGGPPPDSVYSGVQPGIGTEVFVGKIPRDLYEDELVPLFEKAGPIWDLRLMMDPLSGQNRGYAFITFCGKEAAQEAVKLCDSYEIRPGKHLGVCISVANNRLFVGSIPKNKTKENILEEFSKVTEGLVDVILYHQPDDKKKNRGFCFLEYEDHKSAAQARRRLMSGKVKVWGNVVTVEWADPVEEPDPEVMAKVKVLFVRNLATTVTEEILEKSFSEFGKLERVKKLKDYAFVHFEDRGAAVKAMDEMNGKEIEGEEIEIVLAKPPDKKRKERQAARQASRSTAYEDYYYHPPPRMPPPIRGRGRGGGRGGYGYPPDYYGYEDYYDDYYGYDYHDYRGGYEDPYYGYDDGYAVRGRGGGRGGRGAPPPPRGRGAPPPRGRAGYSQRGAPLGPPRGSRGGRGGPAQQQRGRGSRGSRGNRGGNVGGKRKADGYNQPDSKRRQTNNQQNWGSQPIAQQPLQQGGDYSGNYGYNNDNQEFYQDTYGQQWK [HNRNPR]”, the “solubility change mitosis (log2)” value with HeLa Kyoto [1] turned out to be 0.234. Moreover, the figures for the melting temperature in the data set on HeLa Kyoto [2] (cell cycle stage: G1/S) and in the data set on HeLa Kyoto [2] (cell cycle stage: mitosis) were 47.8 °C and 49.4 °C, respectively. For the same sequence, the thermal stability score was found to be 2.99 in the data set on HeLa Kyoto [3] (setting [5]) and 8.2 in the data set with HeLa Kyoto [3] (cell cycle stage: mitosis). Also, the “solubility in G1/S (log2)” value with HeLa Kyoto [4] is -0.12.
Consider “MAPAGCCCCCCFWGGAVAAAGAARRVLLLLLLGVLSAGLRPGALATEHYSPLSLLKQELQHRQQQEAPAGGGGCSPQSGDWGDQYSAECGESSFLNFHDSDCEPKGSSPCDSLLSLNTEKILSQAKSIAEQKRFPFATDNDSTNEELAIAYVLIGSGLYDEAIRHFSTMLQEEPDLVSAIYGRGIAYGKKGLHDIKNAELALFELSRVITLEPDRPEVFEQRAEILSPLGRINEAVNDLTKAIQLQPSARLYRHRGTLYFISEDYATAHEDFQQSLELNKNQPIAMLYKGLTFFHRGLLKEAIESFKEALKQKVDFIDAYKSLGQAYRELGNFEAATESFQKALLLNQNHVQTLQLRGMMLYHHGSLQEALKNFKRCLQLEPYNEVCQYMKGLSHVAMGQFYEGIKAQTKVMLNDPLPGQKASPEYLKVKYLREYSRYLHAHLDTPLTEYNIDVDLPGSFKDHWAKNLPFLIEDYEEQPGLQPHIKDVLHQNFESYKPEVQELICVADRLGSLMQYETPGFLPNKRIHRAMGLAALEVMQAVQRTWTNSKVRMNGKTRLMQWRDMFDIAVKWRRIADPDQPVLWLDQMPARSLSRGFNNHINLIRGQVINMRYLEYFEKILHFIKDRILVYHGANNPKGLLEVREALEKVHKVEDLLPIMKQFNTKTKDGFTVNTKVPSLKDQGKEYDGFTITITGDKVGNILFSVETQTTEERTQLYHAEIDALYKDLTAKGKVLILSSEFGEADAVCNLILSLVYYFYNLMPLSRGSSVIAYSVIVGALMASGKEVAGKIPKGKLVDFEAMTAPGSEAFSKVAKSWMNLKSISPSYKTLPSVSETFPTLRSMIEVLNTDSSPRCLKKL [TTC13]”, for which, in the data set on HeLa Kyoto [1], the “solubility change mitosis (log2)” value is -0.163. Besides, the melting temperature with HeLa Kyoto [2] (cell cycle stage: G1/S) was 52.7 °C; in the data set on HeLa Kyoto [2] (cell cycle stage: mitosis), 53.3 °C. Moreover, the thermal stability score in the data set on HeLa Kyoto [3] (setting [5]) came to 1.53; with HeLa Kyoto [3] (cell cycle stage: mitosis), 0.195. Moreover, in the data set with HeLa Kyoto [4], the “solubility in G1/S (log2)” value stood at 0.165.
In the case of “MAPAMQPAEIQFAQRLASSEKGIRDRAVKKLRQYISVKTQRETGGFSQEELLKIWKGLFYCMWVQDEPLLQEELANTIAQLVHAVNNSAAQHLFIQTFWQTMNREWKGIDRLRLDKYYMLIRLVLRQSFEVLKRNGWEESRIKVFLDVLMKEVLCPESQSPNGVRFHFIDIYLDELSKVGGKELLADQNLKFIDPFCKIAAKTKDHTLVQTIARGVFEAIVDQSPFVPEETMEEQKTKVGDGDLSAEEIPENEVSLRRAVSKKKTALGKNHSRKDGLSDERGRDDCGTFEDTGPLLQFDYKAVADRLLEMTSRKNTPHFNRKRLSKLIKKFQDLSEGSSISQLSFAEDISADEDDQILSQGKHKKKGNKLLEKTNLEKEKGSRVFCVEEEDSESSLQKRRRKKKKKHHLQPENPGPGGAAPSLEQNRGREPEASGLKALKARVAEPGAEATSSTGEESGSEHPPAVPMHNKRKRPRKKSPRAHREMLESAVLPPEDMSQSGPSGSHPQGPRGSPTGGAQLLKRKRKLGVVPVNGSGLSTPAWPPLQQEGPPTGPAEGANSHTTLPQRRRLQKKKAGPGSLELCGLPSQKTASLKKRKKMRVMSNLVEHNGVLESEAGQPQALGSSGTCSSLKKQKLRAESDFVKFDTPFLPKPLFFRRAKSSTATHPPGPAVQLNKTPSSSKKVTFGLNRNMTAEFKKTDKSILVSPTGPSRVAFDPEQKPLHGVLKTPTSSPASSPLVAKKPLTTTPRRRPRAMDFF [RRP1B]”, the “solubility change mitosis (log2)” value with HeLa Kyoto [1] came out at 1.63. For the same sequence, the results for the melting temperature with HeLa Kyoto [2] (cell cycle stage: G1/S) and with HeLa Kyoto [2] (cell cycle stage: mitosis) were 47.9 °C and 49.5 °C, respectively. For the same sequence, the thermal stability score with HeLa Kyoto [3] (setting [5]) was found to be 1.95; in the data set with HeLa Kyoto [3] (cell cycle stage: mitosis), 1.97. For the same sequence, the “solubility in G1/S (log2)” value in the data set with HeLa Kyoto [4] is -2.01.
As for “MAPDSDPFPEGPLLKLLPLDARDRGTQRCRLGPAALHALGARLGSAVKISLPDGGSCLCTAWPRRDGADGFVQLDPLCASPGAAVGASRSRRSLSLNRLLLVPCPPLRRVAVWPVLRERAGAPGARNTAAVLEAAQELLRNRPISLGHVVVAPPGAPGLVAALHIVGGTPSPDPAGLVTPRTRVSLGGEPPSEAQPQPEVPLGGLSEAADSLRELLRLPLRYPRALTALGLAVPRGVLLAGPPGVGKTQLVRAVAREAGAELLAVSAPALQGSRPGETEENVRRVFQRARELASRGPSLLFLDEMDALCPQRGSRAPESRVVAQVLTLLDGASGDREVVVVGATNRPDALDPALRRPGRFDREVVIGTPTLKQRKEILQVITSKMPISSHVDLGLLAEMTVGYVGADLTALCREAAMHALLHSEKNQDNPVIDEIDFLEAFKNIQPSSFRSVIGLMDIKPVDWEEIGGLEDVKLKLKQSIEWPLKFPWEFVRMGLTQPKGVLLYGPPGCAKTTLVRALATSCHCSFVSVSGADLFSPFVGDSEKVLSQIFRQARASTPAILFLDEIDSILGARSASKTGCDVQERVLSVLLNELDGVGLKTIERRGSKSSQQEFQEVFNRSVMIIAATNRPDVLDTALLRPGRLDKIIYIPPPDHKGRLSILKVCTKTMPIGPDVSLENLAAETCFFSGADLRNLCTEAALLALQENGLDATTVKQEHFLKSLKTVKPSLSCKDLALYENLFKKEGFSNVEGI [SPATA5L1]”, the “solubility change mitosis (log2)” value in the data set on HeLa Kyoto [1] is 0.095. The results for the melting temperature in the data set with HeLa Kyoto [2] (cell cycle stage: G1/S) and in the data set on HeLa Kyoto [2] (cell cycle stage: mitosis) were 52.8 °C and 51.2 °C, respectively. The thermal stability score was -0.664 with HeLa Kyoto [3] (setting [5]) and -2.04 in the data set with HeLa Kyoto [3] (cell cycle stage: mitosis). For the same sequence, the “solubility in G1/S (log2)” value in the data set with HeLa Kyoto [4] is -0.0544.
